Results reported in patent US20250320312A1 (OXITOPE PHARMA B V, published 2025).
Positions count from the first letter of the chain named. Each block holds one binder with its values, some of them ahead of it.

Assays:
Experiment in all cases: scFv ELISA
BSA = BSA (UniProt P02769)
[1] = target: Peptide 1: Biotin-…-[Tyr(PC)]-acid
[2] = target: Peptide 5: Biotin-…-[Tyr(PC)]-acid
[3] = target: T1, Peptide 4: Biotin-AGGGGSGGGGSGGGGSAAA-Tyr-acid (N-terminal biotin; C-terminal acid)
T1 construct: control peptide without PC
T1 peptide: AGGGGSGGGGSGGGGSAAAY
Summary of the method: (§1)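 Bound scFv was read as OD450 after HRP–anti-V5 detection, TMB development and HCl stop. PPE with BSA was incubated 1 h at RT on BSA-blocked wells coated overnight at 4° C. with peptide, or on streptavidin wells loaded 1 h with biotinylated PC-peptides at 1 μg/mL.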

[4] = target: T2, Peptide 8: Biotin-AEAAAKEAAAKEAAAKEAAAKAAA-Tyr-acid (N-terminal biotin; C-terminal acid)
T2 construct: control peptide without PC
T2 peptide: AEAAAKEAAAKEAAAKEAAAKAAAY
Summary of the method: as §1

[5] = target: T3, Peptide 4: Biotin-AGGGGSGGGGSGGGGSAAA-Tyr-acid (N-terminal biotin; C-terminal acid)
T3 construct: Control peptide without PC
T3 peptide: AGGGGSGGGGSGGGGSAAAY
Summary of the method: as §1

[6] = target: T4, Peptide 8: Biotin-AEAAAKEAAAKEAAAKEAAAKAAA-Tyr-acid (N-terminal biotin; C-terminal acid)
T4 construct: Control peptide without PC
T4 peptide: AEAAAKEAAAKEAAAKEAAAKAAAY
Summary of the method: as §1

BSA, sequence (P02769 25-607 limits assumed): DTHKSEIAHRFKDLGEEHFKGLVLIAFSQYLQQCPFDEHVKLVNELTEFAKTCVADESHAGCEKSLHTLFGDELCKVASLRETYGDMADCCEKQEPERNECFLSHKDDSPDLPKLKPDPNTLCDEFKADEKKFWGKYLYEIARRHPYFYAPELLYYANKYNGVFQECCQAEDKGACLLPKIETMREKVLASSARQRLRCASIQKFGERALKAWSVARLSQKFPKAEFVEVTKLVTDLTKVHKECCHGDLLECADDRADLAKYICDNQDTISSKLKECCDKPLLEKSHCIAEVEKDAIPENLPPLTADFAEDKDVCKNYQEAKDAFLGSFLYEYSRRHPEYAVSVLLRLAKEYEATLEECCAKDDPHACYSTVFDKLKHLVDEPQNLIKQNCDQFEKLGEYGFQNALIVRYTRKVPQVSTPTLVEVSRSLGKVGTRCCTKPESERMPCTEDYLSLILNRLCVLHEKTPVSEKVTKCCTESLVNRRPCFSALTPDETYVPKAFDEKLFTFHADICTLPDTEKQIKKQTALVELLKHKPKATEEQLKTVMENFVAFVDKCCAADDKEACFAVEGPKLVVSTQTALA

OD450 (BSA): 0.08 OD450 | OD450 [1]: 0.39 OD450 | OD450 [2]: 0.72 OD450 | OD450 [3]: 0.05 OD450 | OD450 [4]: 0.05 OD450
B1: PcOxP_DB03_E09 (scFv, V domains shown)
VH: EVQLLESGGGLVQPGGSLRLSCAASGFTASDFYMEWVRQAPGKGLEWVAASRNKANDQTTEYADSVKGRFTISRDNSKNTLYLQMNSLRAEDTAVYYCARDYYGSSYWYFDSWGQGTLVTVSS
VL: DIQMTQSPSSLSASVGDRVTITCTASESLYSSKHKVHYLAWYQQKPGKAPKLLIYGASNRQSGVPSRFSGSGSGTDFTLTISSLQPEDFATYYCAQFYSYPLTFGGGTKVEIK
notes: scFv in periplasmic extract

OD450 (BSA): 0.09 OD450 | OD450 [1]: 0.58 OD450 | OD450 [2]: 0.8 OD450 | OD450 [3]: 0.05 OD450 | OD450 [4]: 0.05 OD450
B3: PcOxP_DB03_F01 (scFv, V domains shown)
VH: B1 VH with A29F, S30N, Q58Y, S112V
VL: B1 VL with T24E, Q61L, S62I, S99E
notes: scFv in periplasmic extract

OD450 (BSA): 0.08 OD450 | OD450 [1]: 0.78 OD450 | OD450 [2]: 0.86 OD450 | OD450 [3]: 0.05 OD450 | OD450 [4]: 0.05 OD450
B5: PcOxP_DB03_E07 (scFv, V domains shown)
VH: B1 VH with A29F, F32N, Q58Y, T60N, S112V
VL: B1 VL with Q61Y, S62I
notes: scFv in periplasmic extract

OD450 (BSA): 0.1 OD450 | OD450 [1]: 0.54 OD450 | OD450 [2]: 0.57 OD450 | OD450 [3]: 0.05 OD450 | OD450 [4]: 0.05 OD450
B8: PcOxP_DB03_D08 (scFv, V domains shown)
VH: B1 VH with T28W, A29F, Q58Y, S106A, S112V
VL: B1 VL with Q61Y, S62I
notes: scFv in periplasmic extract

OD450 (BSA): 0.09 OD450 | OD450 [1]: 0.87 OD450 | OD450 [2]: 0.92 OD450 | OD450 [3]: 0.05 OD450 | OD450 [4]: 0.05 OD450
B10: PcOxP_DB03_E08 (scFv, V domains shown)
VH: B1 VH with A29F, D31S, K54A, Q58Y, S112L
VL: B1 VL with Q61Y, S62I, S99F
notes: scFv in periplasmic extract

OD450 (BSA): 0.11 OD450 | OD450 [1]: 2 OD450 | OD450 [2]: 1.49 OD450 | OD450 [3]: 0.06 OD450 | OD450 [4]: 0.05 OD450
B13: PcOxP_DB03_E02 (scFv, V domains shown)
VH: B1 VH with F27W, A29F, Q58Y, S112V
VL: B1 VL with S32Q, Q61Y, S62I, S99Y
notes: scFv in periplasmic extract

OD450 (BSA): 0.07 OD450 | OD450 [1]: 1.33 OD450 | OD450 [2]: 1.59 OD450 | OD450 [3]: 0.04 OD450 | OD450 [4]: 0.05 OD450
B14: PcOxP_DB03_G02 (scFv, V domains shown)
VH: B1 VH with A29F, F32G, M34I, Q58Y, S112V
VL: B1 VL with S28E, Q61Y, S62I
notes: scFv in periplasmic extract

OD450 (BSA): 0.1 OD450 | OD450 [1]: 2.18 OD450 | OD450 [2]: 1.67 OD450 | OD450 [3]: 0.06 OD450 | OD450 [4]: 0.05 OD450
B15: PcOxP_DB03_G07 (scFv, V domains shown)
VH: B1 VH with A29F, F32H, Q58Y, S105Q, S112V
VL: B1 VL with Q61Y, S62I
notes: scFv in periplasmic extract

The remaining lines, values behind:

B2: PcOxP_DB02_F09 (scFv, V domains shown)
VH: B1 VH with T28Q, A29F, A55G, D57S, Q58Y, E61A, S112V
VL: DIVMTQSPDSLAVSLGERATINCTASESLYSSKHKVHYLAWYQQKPGQPPKLLIYGASNRYSGVPDRFSGSGSGTDFTLTISSLQAEDVAVYYCAQFYSYPLTFGGGTKVEIK
notes: scFv in periplasmic extract
OD450 (BSA): 0.08 OD450 | OD450 [1]: 0.39 OD450 | OD450 [2]: 0.93 OD450 | OD450 [5]: 0.04 OD450 | OD450 [6]: 0.04 OD450

B4: PcOxP_DB02_E12 (scFv, V domains shown)
VH: B1 VH with T28G, A29F, Q58Y, S112V
VL: B2 VL with S62I, Q96E
notes: scFv in periplasmic extract
OD450 (BSA): 0.06 OD450 | OD450 [1]: 0.26 OD450 | OD450 [2]: 0.58 OD450 | OD450 [5]: 0.05 OD450 | OD450 [6]: 0.06 OD450

B6: PcOxP_DB02_H06 (scFv, V domains shown)
VH: B1 VH with A29F, F32Q, Q58Y, S112V
VL: B2 VL with A25S, H34N, H37N, S62I, S99F
notes: scFv in periplasmic extract
OD450 (BSA): 0.07 OD450 | OD450 [1]: 0.92 OD450 | OD450 [2]: 1.04 OD450 | OD450 [5]: 0.05 OD450 | OD450 [6]: 0.05 OD450

B7: PcOxP_DB02_F10 (scFv, V domains shown)
VH: B1 VH with A29F, F32Q, Q58Y, S112V
VL: B2 VL with A25S, E27Q, L29V, Y30L, K35N, V36K, H37N, S62W
notes: scFv in periplasmic extract
OD450 (BSA): 0.09 OD450 | OD450 [1]: 0.51 OD450 | OD450 [2]: 1.2 OD450 | OD450 [5]: 0.05 OD450 | OD450 [6]: 0.04 OD450

B9: PcOxP_DB02_F04 (scFv, V domains shown)
VH: B1 VH with A29G, K54S, A55G, D57S, Q58Y, E61A, Y103F, S112V
VL: B2 VL with S62I
notes: scFv in periplasmic extract
OD450 (BSA): 0.09 OD450 | OD450 [1]: 0.47 OD450 | OD450 [2]: 0.74 OD450 | OD450 [5]: 0.04 OD450 | OD450 [6]: 0.05 OD450

B11: PcOxP_DB02_F11 (scFv, V domains shown)
VH: B1 VH with F27T, A29F, A55Y, Q58Y, S112V
VL: B2 VL with S62P
notes: scFv in periplasmic extract
OD450 (BSA): 0.08 OD450 | OD450 [1]: 0.23 OD450 | OD450 [2]: 0.66 OD450 | OD450 [5]: 0.04 OD450 | OD450 [6]: 0.04 OD450

B12: PcOxP_DB02_G04 (scFv, V domains shown)
VH: B1 VH with A29F, F32Y, N53W, Q58Y, S112V
VL: B2 VL with T24K, E27Q, L29V, Y30L, S31Y, H34N, V36K, Y61Q, S62I, S99V
notes: scFv in periplasmic extract
OD450 (BSA): 0.11 OD450 | OD450 [1]: 0.32 OD450 | OD450 [2]: 0.7 OD450 | OD450 [5]: 0.05 OD450 | OD450 [6]: 0.05 OD450
